From the RNAGym collection of RNA variant scans (doi:10.7554/elife.80360)

B1: CPEB3 Ribozyme (parent)
chain: GGGGGCCACAGCAGAAGCGUUCACGUCGCGGCCCCUGUCAGAUUCUGGUGAAUCUGCGAAUUCUGCUGU

Variants of: B1
Test: self-cleavage, relative activity (ratio to wild type); higher = more cleavage; co-transcriptional

Variant | self-cleavage
A60U C66U | 0.505
C57G G58U | 0.463
C57G G58A | 0.377
C57G G58C | 0.356
G56U C57G | 0.384
A59G C66G | 0.893
A59G C66A | 0.779
G58U U69G | 1.03
G58A A59U | 0.592
G58A A59C | 0.558
G58A A59G | 0.949
G56C U61G | 0.483
G56C U61C | 0.434
G56C U61A | 0.554
G56C C66A | 0.39
G56C C66G | 0.517
G56C C66U | 0.748
G58U U67A | 0.982
G58U U67G | 1.02
G58U U67C | 1.01
G56C G68A | 0.918

Variant | self-cleavage
G56C G68U | 0.971
A60G C66G | 0.559
A60G C66U | 0.818
A60G C66A | 0.582
C57A G58A | 0.313
C57A G58U | 0.367
G56U C63U | 0.842
G56U C63G | 0.485
G56U C63A | 0.51
A60C U69C | 0.627
U61C U62C | 0.479
C57A C63U | 0.408
C57A C63A | 0.351
C57A C63G | 0.404
A60U U69G | 0.614
A60U U69C | 0.754
U61C | 0.88
U61A | 0.96
A59U A60C | 0.343
A59U A60G | 0.56
A59U A60U | 0.312

Variant | self-cleavage
G56U G58U | 0.978
G56U G58C | 0.989
G56U G58A | 0.924
C57G U61G | 0.439
C57G U61A | 0.399
C57G U61C | 0.377
C57G U64C | 0.38
C57G U64G | 0.394
C57G U64A | 0.349
C57U C66G | 0.317
C57U C66A | 0.316
A60C U64G | 0.333
A60C U64A | 0.267
G56C U67A | 0.941
G56C U67C | 0.878
G56C U67G | 0.758
G58C A60C | 0.359
G58C A60G | 0.683
A60G U61G | 0.533
A60G U61A | 0.632
A59C U67A | 0.689

Variant | self-cleavage
A59C U67C | 0.806
C57A C66A | 0.37
C57A C66U | 0.267
C57A C66G | 0.373
G56U G65C | 0.506
A59U C63U | 0.734
A59U C63G | 0.545
G56C A60G | 0.608
G56C A60U | 0.795
A59C G68U | 0.939
A59C G68A | 0.908
A60G U62C | 0.436
A60G U62G | 0.687
C57A A59U | 0.46
C57A A59G | 0.426
G58A U67C | 0.993
G58A U67A | 0.968
A59G U62G | 0.944
A59G U62C | 0.717
A59U U69C | 1.02
